The chains are these.
B1: humanized anti-IGLV3-21^R110 antibody HC6-LC6 (antibody, human IgG1, V domains shown)
VH: QVQLQESGPGLVKPSETLSLTCTVSGFSLTSYGIHWIRQSPGRGLEWIGVIWRGGGTDSNAAFMSRVTISVDTSKSQVSLKLGSVTAADTAIYYCARSRYDEEESMNYWGQGTSVTVSS
VL: EIVLTQSPSSLSASVGDSVTITCRASGNIHSYLAWYQQKPGKAPKLLIYNAKTLADGVPSRFSGSGSGTQYTLTISSLQPEDFATYYCQHFWNTPPTFGAGTKLELK
notes: VH fused to a human IgG1 constant domain and VL to a human Ig kappa constant domain; Expressed in CHO cells
B2: humanized anti-IGLV3-21^R110 antibody HC6-LC8 (antibody, human IgG1, V domains shown)
VH: B1 VH
VL: EIVLTQSPATLSLSPGERATLSCRASGNIHSYLAWYQQKPGQAPRLLIYNAKTLADGIPARFSGSGSGTDYTLTISSLEPEDFASYYCQHFWNTPPTFGAGTKLELK
notes: Expressed in CHO cells
B3: humanized anti-IGLV3-21^R110 antibody HC7-LC7 (antibody, human IgG1, V domains shown)
VH: B1 VH with V67I, V71R, S76T
VL: B1 VL with E1Q, V3Q, S10F, K45Q, Q70E
notes: Expressed in CHO cells
B4: humanized anti-IGLV3-21^R110 antibody HC7-LC6 (antibody, human IgG1, V domains shown)
VH: B1 VH with V67I, V71R, S76T
VL: B1 VL
notes: Expressed in CHO cells
B5: humanized anti-IGLV3-21^R110 antibody HC6-LC7 (antibody, human IgG1, V domains shown)
VH: B1 VH
VL: B1 VL with E1Q, V3Q, S10F, K45Q, Q70E
notes: Expressed in CHO cells
B6: humanized anti-IGLV3-21^R110 antibody HC7-LC9 (antibody, human IgG1, V domains shown)
VH: B1 VH with V67I, V71R, S76T
VL: B2 VL with A9G, A60D, S77R, S85V
notes: Expressed in CHO cells
B7: humanized anti-IGLV3-21^R110 antibody HC7-LC8 (antibody, human IgG1, V domains shown)
VH: B1 VH with V67I, V71R, S76T
VL: B2 VL
notes: Expressed in CHO cells
B8: humanized anti-IGLV3-21^R110 antibody HC6-LC9 (antibody, human IgG1, V domains shown)
VH: B1 VH
VL: B2 VL with A9G, A60D, S77R, S85V
notes: Expressed in CHO cells

Numbering of substitutions follows the chain as printed.

The target in this test is T1, soluble recombinant IGLV3-21^R110-harboring B-cell receptor, monomeric human IgM (170.5 kDa) (human).
T1 construct: Made in 293-HEK cells by transient expression and used as the analyte in BLI; also called soluble IGLV3-21^R110 B-cell receptor; soluble form of the IGLV3-21^R110 BCR
T1 sequence (heavy, as listed by the source limits assumed, chain 1 of 2): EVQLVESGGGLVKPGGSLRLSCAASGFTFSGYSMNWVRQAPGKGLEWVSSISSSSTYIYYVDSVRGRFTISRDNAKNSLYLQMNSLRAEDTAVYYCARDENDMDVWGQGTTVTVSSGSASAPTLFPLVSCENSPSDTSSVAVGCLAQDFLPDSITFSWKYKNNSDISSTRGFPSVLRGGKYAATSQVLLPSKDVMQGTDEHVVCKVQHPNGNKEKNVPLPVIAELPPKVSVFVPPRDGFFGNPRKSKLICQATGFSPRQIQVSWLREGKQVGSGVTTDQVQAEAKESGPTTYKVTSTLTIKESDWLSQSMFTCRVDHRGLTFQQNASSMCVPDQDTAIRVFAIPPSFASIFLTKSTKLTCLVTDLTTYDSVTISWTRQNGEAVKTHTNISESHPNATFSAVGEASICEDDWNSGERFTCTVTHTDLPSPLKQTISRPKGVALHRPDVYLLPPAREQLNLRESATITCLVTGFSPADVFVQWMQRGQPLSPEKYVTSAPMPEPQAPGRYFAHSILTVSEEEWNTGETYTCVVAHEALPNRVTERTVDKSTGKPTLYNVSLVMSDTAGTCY
T1 sequence (light, as listed by the source limits assumed, chain 2 of 2): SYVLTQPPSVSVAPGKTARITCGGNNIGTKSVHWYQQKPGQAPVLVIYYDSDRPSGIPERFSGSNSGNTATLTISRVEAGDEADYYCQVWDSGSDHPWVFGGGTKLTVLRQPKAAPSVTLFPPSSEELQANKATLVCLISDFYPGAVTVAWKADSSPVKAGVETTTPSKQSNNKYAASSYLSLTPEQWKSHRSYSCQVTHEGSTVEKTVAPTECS
Description: BLI (Fortebio Octet), antibody captured by anti-human IgG Fc, soluble BCR (monomeric IgM) as analyte, 1:1 model. An excerpt: In brief, to define the binding affinities of the antibodies to the IGLV3-21^R110-harboring B-cell receptor, a soluble recombinant version of the BCR (170.5 kDa; sequence according to SEQ ID NO: 52 for HC and 53 for LC) was produced in 293-HEK cell line as monomeric human IgM by transient expression using a protocol described in section 1.1 of this Example, and binding to immobilized anti-IGLV3-21^R110 antibodies was monitored by Bio-Layer Interferometry (BLI) on a Fortebio Octet instrument (Satorius). Kinetic assays were performed by first immobilizing the humanized anti IGLV3-21R110 antibodies onto biosensors through an indirect capturing reagent, anti-human lgG Fc antibody. Anti IGLV3-21^R110 antibodies were loaded at a concentration of 0.01875 μg/ml to generate an anti IGLV3-21^R110 antibody capture level of between 0.30 and 0.34 nm. A 9 nM BCR-fragment solution in running buffer (PBS, 0.02% Tween20, 0.1% BSA, 0.05% sodium acide) was prepared and serial diluted 1:3 to obtain 7 concentrations from 9 to 0.012 nM (9 nM, 3 nM, 1 nM, 0.333 nM, 0.111 nM, 0.037 nM, and 0.012 nM). The anti IGLV3-21 R110 antibody capture biosensors were then submerged in wells containing the different concentrations of the soluble BCR-fragment for 900 seconds (association stage) followed by a dissociation step of 1200 seconds in running buffer. Steps were performed at a constant shake speed of 1000 rpm. All reagents were used as described by the manufacturer. Sensorgrams were generated after double reference correction (buffer and blank sensors) to compensate for both the natural dissociation of the capture anti IGLV3-21^R110 antibody and also non-specific binding of the soluble BCR-fragment to the sensor surface. […] (KD) were calculated based on the ratio of association (ka) and dissociation rate (kd) constants, obtained by fitting sensorgrams with a first order 1:1 binding model using the Fortebio Data Analysis software (Satorius).
In general terms: In BLI a coated tip is dipped into the sample, and binding shifts an interference pattern.
As usually defined, the Kd is the constant that tells how readily two partners part at equilibrium. Consider B1, for which the Kd stood at 0.211 nM.

Turning to B2, the Kd stood at 0.277 nM.

Take B3: the Kd worked out at 0.269 nM.

As for B4, the Kd stood at 0.175 nM.

On to B5, for which the Kd was found to be 0.347 nM.

For the molecule B6, the dissociation constant Kd came out at 0.313 nM.

Turning to B7, the dissociation constant (Kd) was 0.249 nM.

As for B8, the Kd is 0.291 nM.

The values are drawn from patent US20260035459A1 (AVA LIFESCIENCE, published 2026).
